Assay results from patent US20250361322A1 (ICONIC THERAPEUTICS, published 2025).

Columns and labels:
[1] = target: T1, Macaca mulatta TF on RF/6A cells (Macaca mulatta (protein sequence stated …, UniProt P13726 33-294 (human entry))); experiment: flow cytometry, IgG1 titrated on TF-positive Macaca mulatta RF/6A cells, 4-parameter fit
T1 construct: Endogenous TF of the RF/6A cell line; also called TF-positive Macaca mulatta RF/6A cells; cynomolgus TF
T1 chain: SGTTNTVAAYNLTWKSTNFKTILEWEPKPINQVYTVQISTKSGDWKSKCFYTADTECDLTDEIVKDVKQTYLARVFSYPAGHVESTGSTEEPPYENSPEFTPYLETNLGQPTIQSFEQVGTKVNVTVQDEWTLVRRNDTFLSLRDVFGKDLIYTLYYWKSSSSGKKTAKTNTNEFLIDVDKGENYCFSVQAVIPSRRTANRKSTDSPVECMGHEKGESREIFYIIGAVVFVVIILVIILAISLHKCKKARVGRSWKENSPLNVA
Method: After 2 washes, dead cells were labeled with TO-PRO-3 Iodide (ThermoFisher Scientific) and samples were analyzed on a CytoFLEX flow cytometer (Beckman Coulter, Brea, CA, USA) or Novocyte flow cytometer (ACEA Biosciences, San Diego, CA, USA). The median fluorescence intensities (MFIs) at each dilution were plotted and cell EC₅₀'s were derived using a 4-parameter binding model in Prism (GraphPad, La Jolla, CA, USA).

E. coli-derived TF = target: T2, E. coli-derived TF (human (Example 17 does not restate the …, UniProt P13726 33-251)); experiment: protein ELISA, plate coated with E. coli-derived TF-His, antibody titrated, HRP secondary, luminescence
T2 construct: also called E. coli-derived TF-His; E. coli-derived TF protein
Method: (§1) Plates coated with Expi293- or E. coli-derived TF-His were incubated with increasing concentrations of antibodies.

Expi293-derived TF-His = target: T3, Expi293-derived TF-His (human (Example 17 does not restate the …, UniProt P13726 33-251)); experiment: protein ELISA, plate coated with Expi293-derived TF-His, antibody titrated, HRP secondary, luminescence
T3 construct: Glycosylated TF ECD-His6 from Expi293 cells; also called Expi293-derived TF protein; TF ECD-His6
Method: as §1

human Tissue Factor (TF) [2] = target: T4, human Tissue Factor (TF) (human, UniProt P13726 33-295); experiment: cell-based or functional assay
human Tissue Factor (TF) [3] = target: T4, human Tissue Factor (TF); experiment: cell-based or functional assay; remark: listed apart in the source
human Tissue Factor (TF) [4] = target: T4, human Tissue Factor (TF); experiment: cell-based or functional assay; remark: listed apart in the source
human Tissue Factor (TF) [5] = target: T4, human Tissue Factor (TF); experiment: flow cytometry, A431 cells; antibody at 100 nM; competitor 20 nM 25A-Alexa488
Method: (§2) After another 1 hr incubation on ice, cells were washed, stained with a viability dye, and analyzed by flow cytometry. The Alexa488 fluorescence data from viable cells was summarized using median fluorescence intensity.

human Tissue Factor (TF) [6] = target: T4, human Tissue Factor (TF); experiment: flow cytometry, A431 cells; antibody at 100 nM; competitor 20 nM 43Ea-Alexa488
Method: as §2

human Tissue Factor (TF) [7] = target: T4, human Tissue Factor (TF); experiment: flow cytometry, MDA-MB-231 cells; competitor 20 nM FVII-Fc-Alexa488; antibody at 28 nM
Method: as §2

human Tissue Factor (TF) [8] = target: T4, human Tissue Factor (TF); experiment: flow cytometry, MDA-MB-231 cells; competitor 20 nM FVII-Fc-Alexa488; antibody at 83 nM
Method: as §2

human Tissue Factor (TF) [9] = target: T4, human Tissue Factor (TF); experiment: flow cytometry, MDA-MB-231 cells; competitor 20 nM FVII-Fc-Alexa488; antibody at 250 nM
Method: as §2

human Tissue Factor (TF) [10] = target: T4, human Tissue Factor (TF); experiment: flow cytometry, MDA-MB-231 cells; competitor 20 nM FVII-Fc-Alexa488; antibody at 9.25 nM
Method: as §2

Relipidated TF [11] = target: T5, Relipidated TF (UniProt P13726 33-295, limits assumed); experiment: cell-based or functional assay
Relipidated TF [12] = target: T5, Relipidated TF; experiment: cell-based or functional assay; remark: listed apart in the source

B1: 25A (antibody, human IgG1, V domains shown)
VH: QVQLVQSGAEVKKPGASVKVSCKASGYTFDVYGISWVRQAPGQGLEWMGWIAPYNGNTNYAQKLQGRVTMTTDTSTSTAYMELRSLRSDDTAVYYCARDAGTYSPFGYGMDVWGQGTTVTVSS
VL: DIQMTQSPSTLSASVGDRVTITCRASQSISSWLAWYQQKPGKAPKLLIYKASSLESGVPSRFSGSGSGTEFTLTISSLQPDDFATYYCQQFQSLPPFTFGGGTKVEIK
notes: Human IgG1; also called antibody designated 25A
- EC50 [1]: 0.43 nM
- EC50 (E. coli-derived TF): 0.35 nM
- EC50 (Expi293-derived TF-His): 0.54 nM

B2: 25A3 (antibody, human IgG1, V domains shown)
VH: QVQLVQSGAEVKKPGASVKVSCKASGYTFDVYGISWVRQAPGQGLEWMGWIAPYSGNTNYAQKLQGRVTMTTDTSTSTAYMELRSLRSDDTAVYYCARDAGTYSPFGYGMDVWGQGTTVTVSS
VL: DIQMTQSPSTLSASVGDRVTITCQASQSINNWLAWYQQKPGKAPKLLIYKAYNLESGVPSRFSGSGSGTEFTLTISSLQPDDFATYYCQLFQSLPPFTFGGGTKVEIK
notes: Human IgG1; also called antibody designated 25A3
- EC50 [1]: 0.27 nM
- EC50 (E. coli-derived TF): 0.36 nM
- EC50 (Expi293-derived TF-His): 0.47 nM

B3: 25G1 (antibody, human IgG1, V domains shown)
VH: QVQLVQSGAEVKKPGASVKVSCKASGYTFRSYGISWVRQAPGQGLEWMGWVAPYSGNTNYAQKLQGRVTMTTDTSTSTAYMELRSLRSDDTAVYYCARDAGTYSPYGYGMDVWGQGTTVTVSS
VL: DIQMTQSPSTLSASVGDRVTITCRASHSIDSWLAWYQQKPGKAPKLLIYKASYLESGVPSRFSGSGSGTEFTLTISSLQPDDFATYYCQLFQSLPPFTFGGGTKVEIK
notes: Human IgG1; also called antibody designated 25G1
- EC50 [1]: 0.27 nM
- EC50 (E. coli-derived TF): 0.31 nM
- EC50 (Expi293-derived TF-His): 0.42 nM

B4: 29D (antibody, human IgG1, V domains shown)
VH: QVQLVESGGGVVQPGRSLRLSCAASGFTFHSRGMHWVRQAPGKGLEWVAVITYDGINKYYADSVEGRFTISRDNSKNTLYLQMNSLRAEDTAVYYCARDGVYYGVYDYWGQGTLVTVSS
VL: not shown
notes: Human IgG1; also called antibody designated 29D
- % FXa at 12.5 nM antibody (human Tissue Factor (TF) [2]): 85%
- % FXa at 25 nM antibody (human Tissue Factor (TF) [2]): 77%
- % FXa at 50 nM antibody (human Tissue Factor (TF) [2]): 75%
- % FXa at 100 nM antibody (human Tissue Factor (TF) [2]): 75%
- % IL8 at 2.56 nM antibody (human Tissue Factor (TF) [3]): 27%
- % IL8 at 6.4 nM antibody (human Tissue Factor (TF) [3]): 6%
- % IL8 at 16 nM antibody (human Tissue Factor (TF) [3]): 2%
- % IL8 at 40 nM antibody (human Tissue Factor (TF) [3]): 2%
- % IL8 at 100 nM antibody (human Tissue Factor (TF) [3]): 1%
- % GM-CSF at 2.56 nM antibody (human Tissue Factor (TF) [4]): 38%
- % GM-CSF at 6.4 nM antibody (human Tissue Factor (TF) [4]): 15%
- % GM-CSF at 16 nM antibody (human Tissue Factor (TF) [4]): 7%
- % GM-CSF at 40 nM antibody (human Tissue Factor (TF) [4]): 6%
- % GM-CSF at 100 nM antibody (human Tissue Factor (TF) [4]): 5%
- % 25A binding (human Tissue Factor (TF) [5]): 70%
- % 43Ea binding (human Tissue Factor (TF) [6]): 64%
- % FVIIa (human Tissue Factor (TF) [7]): 4%
- % FVIIa (human Tissue Factor (TF) [8]): 3%
- % FVIIa (human Tissue Factor (TF) [9]): 3%
- % FVIIa (human Tissue Factor (TF) [10]): 6%

B5: 29E (antibody, human IgG1, V domains shown)
VH: QVQLVESGGGVVQPGRSLRLSCAASGFTFRSYGMHWVRQAPGKGLEWVAVITYDGINKYYADSVEGRFTISRDNSKNTLYLQMNSLRAEDTAVYYCARDGVYYGVYDYWGQGTLVTVSS
VL: not shown
notes: Human IgG1; also called antibody designated 29E
- EC50 [1]: 0.53 nM
- EC50 (E. coli-derived TF): 0.68 nM
- EC50 (Expi293-derived TF-His): 0.98 nM

B6: 29E (antibody, human IgG1, V domains shown)
VH: QVQLVESGGGVVQPGRSLRLSCAASGFTFRSYGMHWVRQAPGKGLEWVAVITYDGINKYYADSVEGRFTISRDNSKNTLYLQMNSLRAEDTAVYYCARDGVYYGVYDYWGQGTLVTVSS
VL: not shown
notes: as for B5
- % FXa at 12.5 nM antibody (human Tissue Factor (TF) [2]): 81%
- % FXa at 25 nM antibody (human Tissue Factor (TF) [2]): 68%
- % FXa at 50 nM antibody (human Tissue Factor (TF) [2]): 63%
- % FXa at 100 nM antibody (human Tissue Factor (TF) [2]): 66%
- % IL8 at 2.56 nM antibody (human Tissue Factor (TF) [3]): 33%
- % IL8 at 6.4 nM antibody (human Tissue Factor (TF) [3]): 5%
- % IL8 at 16 nM antibody (human Tissue Factor (TF) [3]): 2%
- % IL8 at 40 nM antibody (human Tissue Factor (TF) [3]): 2%
- % IL8 at 100 nM antibody (human Tissue Factor (TF) [3]): 2%
- % GM-CSF at 2.56 nM antibody (human Tissue Factor (TF) [4]): 33%
- % GM-CSF at 6.4 nM antibody (human Tissue Factor (TF) [4]): 9%
- % GM-CSF at 16 nM antibody (human Tissue Factor (TF) [4]): 5%
- % GM-CSF at 40 nM antibody (human Tissue Factor (TF) [4]): 6%
- % GM-CSF at 100 nM antibody (human Tissue Factor (TF) [4]): 6%
- % 25A binding (human Tissue Factor (TF) [5]): 96%
- % 43Ea binding (human Tissue Factor (TF) [6]): 85%
- % FVIIa (human Tissue Factor (TF) [7]): 3%
- % FVIIa (human Tissue Factor (TF) [8]): 2%
- % FVIIa (human Tissue Factor (TF) [9]): 2%
- % FVIIa (human Tissue Factor (TF) [10]): 5%

B7: 54E (antibody, human IgG1, V domains shown)
VH: QVQLVQSGAEVKKPGASVKVSCKASGYTFANYYMHWVRQAPGQGLEWMGIINPSGGITVYAQKFQGRVTMTRDTSTSTVYMELSSLRSEDTAVYYCARGGSKVAALAFDIWGQGTMVTVSS
VL: DIQMTQSPSSLSASVGDRVTITCQASQDISNSLNWYQQKPGKAPKLLIYDASNLETGVPSRFSGSRSGTDFTFTISSLQPEDIATYYCQQYNFHPLTFGGGTKVEIK
notes: Human IgG1; also called antibody designated 54E
- EC50 [1]: 1.28 nM
- EC50 (E. coli-derived TF): 0.38 nM
- EC50 (Expi293-derived TF-His): 0.96 nM

B8: 39A (antibody, human IgG1, V domains shown)
VH: QVQLVQSGAEVKKPGSSVKVSCKASGGTFSSNAIGWVRQAPGQGLEWMGSIIPIIGFANYAQKFQGRVTITADESTSTAYMELSSLRSEDTAVYYCARDSGYYYGASSFGMDVWGQGTTVTVSS
VL: EIVMTQSPATLSVSPGERATLSCRASQSVSSNLAWYQQKPGQAPRLLIYGASTRATGIPARFSGSGSGTEFTLTISSLQSEDFAVYYCEQYNNLPLTFGGGTKVEIK
notes: Human IgG1; also called antibody designated 39A
- % ETP at 10 nM Ab (TGA without antibody pre-incubation) (Relipidated TF [11]): 58%
- % Peak IIa at 10 nM Ab (TGA without antibody pre-incubation) (Relipidated TF [11]): 24%
- % Peak IIa at 50 nM Ab (TGA without antibody pre-incubation) (Relipidated TF [11]): 8%
- % Peak IIa at 100 nM Ab (TGA without antibody pre-incubation) (Relipidated TF [11]): 6%
- ETP at 10 nM Ab (TGA without antibody pre-incubation) (Relipidated TF [11]): 1330 nM·min
- Lag Time at 10 nM Ab (TGA without antibody pre-incubation) (Relipidated TF [11]): 12.4 min
- Lag Time at 50 nM Ab (TGA without antibody pre-incubation) (Relipidated TF [11]): 33.1 min
- Lag Time at 100 nM Ab (TGA without antibody pre-incubation) (Relipidated TF [11]): 38.1 min
- Peak IIa at 10 nM Ab (TGA without antibody pre-incubation) (Relipidated TF [11]): 84 nM
- Peak IIa at 50 nM Ab (TGA without antibody pre-incubation) (Relipidated TF [11]): 29 nM
- Peak IIa at 100 nM Ab (TGA without antibody pre-incubation) (Relipidated TF [11]): 22 nM
- ttPeak at 10 nM Ab (TGA without antibody pre-incubation) (Relipidated TF [11]): 20.7 min
- ttPeak at 50 nM Ab (TGA without antibody pre-incubation) (Relipidated TF [11]): 43.2 min
- ttPeak at 100 nM Ab (TGA without antibody pre-incubation) (Relipidated TF [11]): 48.3 min
- % Peak IIa at 10 nM Ab (TGA with 10 min antibody pre-incubation) (Relipidated TF [12]): 11%
- % Peak IIa at 50 nM Ab (TGA with 10 min antibody pre-incubation) (Relipidated TF [12]): 8%
- % Peak IIa at 100 nM Ab (TGA with 10 min antibody pre-incubation) (Relipidated TF [12]): 6%
- Lag Time at 10 nM Ab (TGA with 10 min antibody pre-incubation) (Relipidated TF [12]): 20.9 min
- Lag Time at 50 nM Ab (TGA with 10 min antibody pre-incubation) (Relipidated TF [12]): 29 min
- Lag Time at 100 nM Ab (TGA with 10 min antibody pre-incubation) (Relipidated TF [12]): 32.1 min
- Peak IIa at 10 nM Ab (TGA with 10 min antibody pre-incubation) (Relipidated TF [12]): 30 nM
- Peak IIa at 50 nM Ab (TGA with 10 min antibody pre-incubation) (Relipidated TF [12]): 21 nM
- Peak IIa at 100 nM Ab (TGA with 10 min antibody pre-incubation) (Relipidated TF [12]): 17 nM
- ttPeak at 10 nM Ab (TGA with 10 min antibody pre-incubation) (Relipidated TF [12]): 30.8 min
- ttPeak at 50 nM Ab (TGA with 10 min antibody pre-incubation) (Relipidated TF [12]): 39.7 min
- ttPeak at 100 nM Ab (TGA with 10 min antibody pre-incubation) (Relipidated TF [12]): 43.2 min
- EC50 [1]: 0.27 nM
- EC50 (E. coli-derived TF): 0.34 nM
- EC50 (Expi293-derived TF-His): 0.45 nM
